Target: the molecule itself
Assay: SEC; calibrated Superdex 200 pg HiLoad 16/600, 25 mM Tris-HCl pH 8.0, 150 mM NaCl, 1.0 ml/min; apparent molecular mass ~46 kDa

B1: D-lyxose isomerase from Thermofilum sp. (TsLI) (enzyme, Thermofilum sp. ex4484_79)
chain: MLTKELVKEAREKAIRMLEKACIAITDEEKEKIEVTDFGLGVLYTFGLEILVYVNNERYCAKELVMFPRQICPEHRHPPIGSYLGKQETFRCRWGEVYLYVPGTPTPNPRARIPEEKKRYFTVWHEIVLRPGEQYTIPPNTLHWFQAGDEGAIVSEFSSQSIDEKDIFTDPNVKRIPEIV
notes: locus tag B6U94_07925; synthetic gene cloned into pET19b; subunit about 23 kDa; Homodimer; in the crystal the two monomers are joined by a disulfide bond between C22 of each subunit; No removal of the His tag is described; also called T. sp; LI; source: E. coli Rosetta (DE3) pLysS, purified (heat precipitation at 75°C, Ni-NTA, SEC)
  stoichiometry N: 2
